Test results: paper doi:10.1101/697946

Target: LMP7-His, biotinylated (UniProt P28062)
Assay: BLI

**Q.** For “Nef-GST (from UniProt P03406 1-206) (natural protein)”, which Kd is on record?
**A.** 735 nM

**Q.** And the wavelength shift?
**A.** 71.1 pm
